Measured values reported in the supplement of paper PMC9732359.
± gives the uncertainty stated by the source.

Assay: protein stability index of a GFP-peptide fusion (yeast GPS) (PSI 1-4); higher = more stable; sorted into four equal gates, so the index is relative within each strain
Settings: doa10∆
Procedure, shortened: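 The protein stability index of a peptide was calculated by multiplying its read frequency in each gate by that gate's number and adding the products. The peptides were tiled 17-residue stretches of yeast proteins, fused downstream of GFP on a Cherry-expressing plasmid and carried in yeast as a pooled library. Mid-log cultures in leucine-free medium were sorted into four equal gates by GFP/Cherry ratio, and each gate's plasmids were PCR-amplified and Illumina-sequenced.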

| Sequence | protein stability index |
| --- | --- |
| MVDESDKKQQTIDEQSQ [RPN1] | 3.17 ± 0.16 |
| MVKNVKPSSPPDVKSLV [SIR4] | 3.23 ± 0.11 |
| MVLRKQKRYTVKKALAK [RPL14A] | 2.08 ± 0.14 |
| MVLRNVMEYDVKFYEIF [SRB8] | 1.88 ± 0.081 |
| MVRLKSRYILFEIIFPP [POP5] | 1.47 ± 0.067 |
| MVTSNVVLVSGEGERFT [SKP1] | 2.11 ± 0.14 |
| MYTRLCICSGMLFEMDG [SIN4] | 1.45 ± 0.038 |
| NAAVAGVANTDTAGEES [SWI3] | 3.06 ± 0.061 |
| NAEAKGLDATKLYVSHI [RPL17A] | 3.23 ± 0.16 |
| NAIIEANLGKYGILSID [RPL7A] | 2.87 ± 0.17 |
| NAKDIQIPVYDTFDGSD [FAS1] | 2.47 ± 0.078 |
| NALEHKYFTESDIPVSE [SSN3] | 2.3 ± 0.081 |
| NANIFSSVKCFGPIKVE [FAS1] | 2.04 ± 0.068 |
| NANRVFRTRFQDGTSVV [SMC2] | 2.74 ± 0.16 |
| NARKVVGASVVVVKNWG [RPS12] | 2.83 ± 0.15 |
| NATHDEDEFIVQHDQIL [SWP82] | 2.93 ± 0.036 |
| NATVNLAMEAILNELEV [YJR042W/NUP85] | 2.7 ± 0.11 |
| NAVSFDTTFSDFKEVED [SRB4] | 3.13 ± 0.043 |
| NCFFDVIVPQIVLDEVR [DIS3] | 1.62 ± 0.12 |
| NDFTTKLINIKKFDISN [MED1] | 1.67 ± 0.08 |
| NDICSVENYETSSAFFY [SIR4] | 2.82 ± 0.046 |
| NDLEVGVATKDKFFTLS [SCL1] | 3.18 ± 0.084 |
| NDLQSETKTKKEKIKGL [SMC4] | 3.32 ± 0.2 |
| NDNEDDDEEYDYNDVEV [BRR2] | 3.28 ± 0.077 |
| NDNIGANRSRFNNEAPP [SMB1] | 2.64 ± 0.076 |

| Sequence | protein stability index |
| --- | --- |
| NDPEYMDTSDDAFVATA [DLS1] | 3.1 ± 0.17 |
| NDQALIKVLLRQNRRPE [RET1] | 1.83 ± 0.087 |
| NDRESVLTNIEVYRTSL [SMC3] | 2.94 ± 0.13 |
| NDSFKGLITNKMWFDVQ [PRP8] | 2.98 ± 0.16 |
| NDVTRRTVKNILVSVLP [CSL4] | 2.89 ± 0.12 |
| NEDDALIYGISDEERDD [AAR2] | 3.29 ± 0.12 |
| NEDMVRRANFYKENEAM [SNF12] | 3.33 ± 0.11 |
| NEDSKAFHTAVLRLNAI [NUT1] | 3.26 ± 0.058 |
| NEGVPSPMLSISNLTQE [FAS1] | 2.84 ± 0.055 |
| NEIEGKNEETPQNEKPP [RPC25] | 2.76 ± 0.21 |
| NEIKQLGSDSSDGHNSE [SRB4] | 2.6 ± 0.072 |
| NEISRNGTMINEVIDKL [PCI8] | 2.59 ± 0.067 |
| NELMRWPIVQKTYEPVL [RPN5] | 2.25 ± 0.06 |
| NEQAARAANQGALPPDL [CYT1] | 3.18 ± 0.058 |
| NERELNVFARLSRLLSL [RPC82] | 2.02 ± 0.16 |
| NESEKDQWLEEYKKHFP [UBP6] | 3.31 ± 0.16 |
| NETSEQLVPIRLEFDQD [SNF5] | 3.19 ± 0.097 |
| NEYPVADAVTKDLKLRR [REC8] | 3.08 ± 0.1 |
| NFGNNGAGGLNPFTSAT [YOR098C/NUP1] | 2.89 ± 0.055 |
| NFKSYRGVTKVGFGESN [SMC1] | 3.03 ± 0.096 |
| NFNSVNDANITSNKEGF [SSN2] | 3 ± 0.11 |
| NFPVRQWSIEIVLLDDE [TAF14] | 1.57 ± 0.07 |
| NGASVPINLHPSKLVIT [RPL26A] | 1.75 ± 0.058 |
| NGAVGKREGKTRLLNIV [ISW2] | 3.27 ± 0.12 |

Same assay, conditions: pdr5∆

| Sequence | protein stability index |
| --- | --- |
| MILKLVCQVTKFGLLLQ [ECM29] | 2.28 ± 0.078 |
